# Where “and” joins values, the source holds several entries; their conditions need not be identical. Equal values may be shown once. Read-outs that look alike come from different tables or passages of the source.
# How the values were obtained:
# [1] = molecular target: Pertuzumab light chain (kappa) V133D, HA-tagged; experiment: LCCA
# [2] = molecular target: Pertuzumab light chain (kappa) V133D_Q160E, HA-tagged; experiment: LCCA
# [3] = molecular target: Pertuzumab light chain (kappa) V133D, HA-tagged; experiment: LCCA; remark: listed apart in the source
# [4] = molecular target: Pertuzumab light chain (kappa) V133D_Q160E, HA-tagged; experiment: LCCA; remark: listed apart in the source
# [5] = molecular target: Pertuzumab light chain (kappa) V133D, HA-tagged; experiment: LCCA; remark: listed apart in the source
# [6] = molecular target: Pertuzumab light chain (kappa) V133D_Q160E, HA-tagged; experiment: LCCA; remark: listed apart in the source
# [7] = molecular target: CAT-2200 light chain (lambda) T131K_V133S, FLAG-tagged; experiment: LCCA
# [8] = molecular target: CAT-2200 light chain (lambda) E124Q_T131K, FLAG-tagged; experiment: LCCA
# [9] = molecular target: CAT-2200 light chain (lambda) E124Q_T131K_V133S, FLAG-tagged; experiment: LCCA
# [10] = molecular target: Pertuzumab light chain (kappa) V133D, HA-tagged; experiment: LCCA; remark: listed apart in the source
# [11] = molecular target: Pertuzumab light chain (kappa) V133D_Q160E, HA-tagged; experiment: LCCA; remark: listed apart in the source
# [12] = molecular target: CAT-2200 light chain (lambda) E124Q_T131K_V133S, FLAG-tagged; experiment: LCCA; remark: listed apart in the source
# [13] = molecular target: CAT-2200 light chain (lambda) T131K_V133S, FLAG-tagged; experiment: LCCA; remark: listed apart in the source
# [14] = molecular target: Pertuzumab light chain (kappa) S176D_T178E, HA-tagged; experiment: LCCA
# [15] = molecular target: Pertuzumab light chain (kappa) S176E_T178E, HA-tagged; experiment: LCCA
# [16] = molecular target: Pertuzumab light chain (kappa) S131D_V133G_T178F, HA-tagged; experiment: LCCA
# [17] = molecular target: Pertuzumab light chain (kappa) S176E_T178E, HA-tagged; experiment: LCCA; remark: listed apart in the source
# [18] = molecular target: Pertuzumab light chain (kappa) S131D_V133G_T178F, HA-tagged; experiment: LCCA; remark: listed apart in the source
# [19] = molecular target: Pertuzumab light chain (kappa) S131E_V133G_T178F, HA-tagged; experiment: LCCA
# [20] = molecular target: Pertuzumab light chain (kappa) S176E_T178E, HA-tagged; experiment: LCCA; remark: listed apart in the source
# [21] = molecular target: Pertuzumab light chain (kappa) V133I_S176D_T178E, HA-tagged; experiment: LCCA
# [22] = molecular target: Pertuzumab light chain (kappa) V133L_S176D_T178E, HA-tagged; experiment: LCCA
# [23] = molecular target: Pertuzumab light chain (kappa) V133L_S176D_T178E, HA-tagged; experiment: LCCA; remark: listed apart in the source
# [24] = molecular target: Pertuzumab light chain (kappa) V133L_S176D_T178E, HA-tagged; experiment: LCCA; remark: listed apart in the source
# [25] = molecular target: Pertuzumab light chain (kappa) V133L_S176D_T178E, HA-tagged; experiment: LCCA; remark: listed apart in the source
# [26] = molecular target: Pertuzumab light chain (kappa) V133L_S176D_T178E, HA-tagged; experiment: LCCA; remark: listed apart in the source
# [27] = molecular target: Pertuzumab light chain (kappa) V133I_S176D_T178E, HA-tagged; experiment: LCCA; remark: listed apart in the source
# [28] = molecular target: Pertuzumab light chain (kappa) V133I_S176E_T178E, HA-tagged; experiment: LCCA
# [29] = molecular target: Pertuzumab light chain (kappa) V133L_S176D_T178E, HA-tagged; experiment: LCCA; remark: listed apart in the source
# [30] = molecular target: SGN-CD19a kappa light chain (L2) with V133G_S176D, design 2188, Systems B and C; experiment: SMCA, LC-MS
# [31] = molecular target: SGN-CD19a kappa light chain (L2) with V133G_S176D, design 2188, Systems B and C
# [32] = molecular target: SGN-CD19a kappa light chain (L2) with T178E_T180E, design 2830, System C; experiment: SMCA, LC-MS
# [33] = molecular target: SGN-CD19a kappa light chain (L2) with T178E_T180E, design 2830, System C
substance,measurement,setting,value
Pertuzumab heavy chain Fab construct L143I_S186K,H2L2:H2L1 normalized median scalar value ln(r1/f1),[1],0.36
same,H2L2:H2L1 normalized median scalar value ln(r1/f1),[2],0.81
same,H2L2:H2L1 normalized median scalar value ln(r1/f1),[3],0.26
same,H2L2:H2L1 normalized median scalar value ln(r1/f1),[4],0.76
same,H2L2:H2L1 normalized median scalar value ln(r1/f1),[5],0.92
same,H2L2:H2L1 normalized median scalar value ln(r1/f1),[6],1.5
same,H2L2:H2L1 normalized median ratio (H2L1 share),[7],28%
same,H2L2:H2L1 normalized median ratio (H2L1 share),[8],31%
same,H2L2:H2L1 normalized median ratio (H2L1 share),[9],17%
same,H2L2:H2L1 normalized median scalar value ln(r1/f1),[10],1.18
same,H2L2:H2L1 normalized median scalar value ln(r1/f1),[11],1.6
Pertuzumab heavy chain Fab construct S186K,H2L2:H2L1 normalized median scalar value ln(r1/f1),[1],0.22
same,H2L2:H2L1 normalized median scalar value ln(r1/f1),[2],0.41
same,H2L2:H2L1 normalized median scalar value ln(r1/f1),[3],0.02
same,H2L2:H2L1 normalized median scalar value ln(r1/f1),[4],0.22
same,H2L2:H2L1 normalized median scalar value ln(r1/f1),[5],0.77
same,H2L2:H2L1 normalized median scalar value ln(r1/f1),[6],1.05
same,H2L2:H2L1 normalized median ratio (H2L1 share),[12],31%
same,H2L2:H2L1 normalized median ratio (H2L1 share),[9],22%
same,H2L2:H2L1 normalized median ratio (H2L1 share),[13],26%
same,H2L2:H2L1 normalized median scalar value ln(r1/f1),[10],0.82
same,H2L2:H2L1 normalized median scalar value ln(r1/f1),[11],1.27
Pertuzumab heavy chain Fab construct S188K,H2L2:H2L1 normalized median scalar value ln(r1/f1),[14],1.41
same,H2L2:H2L1 normalized median scalar value ln(r1/f1),[15],2.67
same,H2L2:H2L1 normalized median scalar value ln(r1/f1),[16],1.5
same,H2L2:H2L1 normalized median scalar value ln(r1/f1),[17],2.71
same,H2L2:H2L1 normalized median scalar value ln(r1/f1),[18],2.22
same,H2L2:H2L1 normalized median scalar value ln(r1/f1),[19],1.67
same,H2L2:H2L1 normalized median scalar value ln(r1/f1),[20],2.75
same,H2L2:H2L1 normalized median scalar value ln(r1/f1),[21],2.33
Pertuzumab heavy chain Fab construct V177I_S188K,H2L2:H2L1 normalized median scalar value ln(r1/f1),[22],0.55
same,H2L2:H2L1 normalized median scalar value ln(r1/f1),[23],1.64
same,H2L2:H2L1 normalized median scalar value ln(r1/f1),[24],1.83
same,H2L2:H2L1 normalized median scalar value ln(r1/f1),[25],2.15
same,H2L2:H2L1 normalized median scalar value ln(r1/f1),[26],2.3
same,H2L2:H2L1 normalized median scalar value ln(r1/f1),[27],2.58
same,H2L2:H2L1 normalized median scalar value ln(r1/f1),[28],2.63
same,H2L2:H2L1 normalized median scalar value ln(r1/f1),[29],2.38
"SGN-CD19a full-length IgG1 heavy chain (H2) with L124R, design 2188, Systems B and C",Change in % H2L2 Pairing with respect to wild type,[30],38.7% and 19.9%
same,% H2L2 Pairing,[31],92.9% and 99.5%
"SGN-CD19a full-length IgG1 heavy chain (H2) with S186R, design 2830, System C",Change in % H2L2 Pairing with respect to wild type,[32],20%
same,% H2L2 Pairing,[33],99.6%

# Source: patent publication US20190338048A1
